Results taken from patent US20070066551.

What was measured:
[1] = target: IL-23 (full length) (Homo sapiens) (UniProt Q9NPF7+P29460); assay: filter; settings: dRmY, DPBS with Ca/Mg, BSA, RT
[2] = tested on: IgE (Homo sapiens), P01854-1; assay: filter; settings: DPBS with Ca/Mg, BSA
IgE (Homo sapiens), P01854-1, sequence (P01854 other isoform, or with tags, fused parts or gaps): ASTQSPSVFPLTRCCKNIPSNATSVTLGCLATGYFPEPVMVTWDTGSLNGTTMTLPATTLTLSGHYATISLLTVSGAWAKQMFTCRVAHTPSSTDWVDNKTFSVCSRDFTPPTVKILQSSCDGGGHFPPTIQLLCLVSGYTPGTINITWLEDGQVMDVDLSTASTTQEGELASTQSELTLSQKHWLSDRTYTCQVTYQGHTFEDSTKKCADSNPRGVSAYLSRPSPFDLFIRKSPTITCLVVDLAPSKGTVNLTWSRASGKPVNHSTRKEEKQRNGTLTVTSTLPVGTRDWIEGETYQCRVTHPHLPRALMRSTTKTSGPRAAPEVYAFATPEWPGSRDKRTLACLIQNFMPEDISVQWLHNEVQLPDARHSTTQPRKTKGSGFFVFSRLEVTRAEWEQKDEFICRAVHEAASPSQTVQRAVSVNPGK

IL-23 (full length) (Homo sapiens), sequence (Q9NPF7 20-189, chain 1 of 2): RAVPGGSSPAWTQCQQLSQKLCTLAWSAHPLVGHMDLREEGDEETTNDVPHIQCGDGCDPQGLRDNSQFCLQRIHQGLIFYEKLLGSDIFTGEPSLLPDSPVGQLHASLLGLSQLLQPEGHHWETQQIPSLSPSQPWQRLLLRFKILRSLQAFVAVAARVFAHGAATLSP
IL-23 (full length) (Homo sapiens), sequence (P29460 23-328, chain 2 of 2): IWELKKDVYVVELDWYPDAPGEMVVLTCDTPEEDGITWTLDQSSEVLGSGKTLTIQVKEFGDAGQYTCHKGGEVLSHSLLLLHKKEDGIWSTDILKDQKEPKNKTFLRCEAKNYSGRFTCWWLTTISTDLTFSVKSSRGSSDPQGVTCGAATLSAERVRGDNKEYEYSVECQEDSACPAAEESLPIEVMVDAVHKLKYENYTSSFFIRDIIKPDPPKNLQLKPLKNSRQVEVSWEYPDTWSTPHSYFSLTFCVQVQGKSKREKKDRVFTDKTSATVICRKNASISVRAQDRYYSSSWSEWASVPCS

ACAGGCAAGUAANUGGGGAGUGCGGGCGGGGUGU [ARC1683]
Kd ([1]; 2'-OMe inosine for 2nd mU, 3'-idT (last t of SEQ), parent 9.8 nM): 4.8 nM

ACAGGCAAGUAAUUGGGGAGUGCGGGCGGGGUGN [ARC1702]
Kd ([1]; 2'-OMe inosine for last mU, 3'-idT (last t of SEQ), parent 15 nM): 10 nM

ACAGGCAAGUAAUUGGGGAGUGCGGGCGGGGUGU [ARC1648]
Kd ([1]; dI at 1st dA (position 1) [1], parent 13 nM): 12 nM

ACAGGCAAGUAAUUGGGGAGUGCGGGCGGGGUGU [ARC1650]
Kd ([1]; dI at 3rd dA (position 7) [7], parent 13 nM): 34 nM

ACAGGCAAGUAAUUGGGGAGUGCGGGCGGGGUGU [ARC1653]
Kd ([1]; dI at 6th dA (position 12) [12], parent 13 nM): 25 nM

AGCCUGGGGACCCAUGGGGGGCU [ARC445]
Kd ([2]; 2'-deoxy purines, 2'-OMe pyrimidines (dRmY), RT, other runs 12.6 nM (Table 10), with ssDNA and tRNA 14.6 (Table 8), 20 (Table 12), 8.5, 27 and 13 (Table 13)): 3 nM

AGCCUGGGGACCCAUGGGGGGCU [ARC584]
Kd ([2]; dRmY, PS between 16 and 17, RT, parent 12.6 nM): 6.9 nM

AGCCUGGGGACCCAUGGGGGGCU [ARC588]
Kd ([2]; dRmY, PS between 20 and 21, RT, parent 12.6 nM): 5.3 nM

AGCCUGGGGACCCAUGGGGGGCU [ARC597]
Kd ([2]; dRmY, 2'-deoxy-5mC at 3, ssDNA, tRNA, parent 20 nM, other run 16 nM (Table 13, parent 8.5 nM)): 21.5 nM

AGCCUGGGGACCCAUGGGGGGCU [ARC599]
Kd ([2]; dRmY, 2'-deoxy-5mC at 11, ssDNA, tRNA, parent 20 nM, other run 10.4 nM (Table 13, parent 8.5 nM)): 20.5 nM

AGCCUGGGGACCCAUGGGGGGCU [ARC602]
Kd ([2]; dRmY, 2'-deoxy-5mC at 22, ssDNA, tRNA, parent 20 nM, other run 9 nM (Table 13, parent 8.5 nM)): 26 nM

AGCCUGGGGACCCAUGGGGGGCU [ARC608]
Kd ([2]; dRmY, dC in place of sixth mC (position 22, per description; printed sequence shows mC), ssDNA, tRNA, RT, parent 14.6 nM): 7.9 nM

AGCCUGGGGACCCAUGGGGGGCU [ARC702]
Kd ([2]; dRmY, PS between 16 and 17, 20 and 21, RT, parent 12.6 nM): 2.6 nM

AGCCUGGGGACCCAUGGGGGGCU [ARC751]
Kd ([2]; dRmY, 2'-deoxy-5mC at 3 and 22, ssDNA, tRNA, parent 20 nM): 15 nM

AGCCUGGGGACCCAUGGGGGGCU [ARC753]
Kd ([2]; dRmY, 2'-deoxy-5mC at 11 and 22, ssDNA, tRNA, parent 20 nM): 15 nM

AGCCUGGGGACCCAUGGGGGGCU [ARC756]
Kd ([2]; dRmY, 2'-deoxy-5mC at 3, 11 and 22, ssDNA, tRNA, parent 20 nM): 14 nM

AGCCUGGGGACCCAUGGGGGGCU [ARC767]
Kd ([2]; dRmY, PS between 12 and 13, 16 and 17, 20 and 21, RT, parent 12.6 nM): 2.7 nM

AGCCUGGGGACCCAUGGGGGGCU [ARC768]
Kd ([2]; dRmY, PS between 13 and 14, 16 and 17, 20 and 21, RT, parent 12.6 nM): 3.5 nM

AGCCUGGGGACCCAUGGGGGGCU [ARC914]
Kd ([2]; dRmY, 2'-deoxy-5mC at 3, dC at 22, ssDNA, tRNA, parent 27 nM): 11.9 nM

AGCCUGGGGACCCAUGGGGGGCU [ARC915]
Kd ([2]; dRmY, 2'-deoxy-5mC at 11, dC at 22, ssDNA, tRNA, parent 27 nM): 16.9 nM

AGCCUGGGGACCCAUGGGGGGCU [ARC916]
Kd ([2]; dRmY, 2'-deoxy-5mC at 3, dC at 12, ssDNA, tRNA, parent 27 nM): 13.7 nM

AGCCUGGGGACCCAUGGGGGGCU [ARC918]
Kd ([2]; dRmY, 2'-deoxy-5mC at 22, dC at 12, ssDNA, tRNA, parent 27 nM): 14.6 nM

AGCCUGGGGACCCAUGGGGGGCU [ARC920]
Kd ([2]; dRmY, 2'-deoxy-5mC at 3 and 22, dC at 12, ssDNA, tRNA, parent 27 nM): 12.8 nM

AGCCUGGGGACCCAUGGGGGGCU [ARC921]
Kd ([2]; dRmY, 2'-deoxy-5mC at 11 and 22, dC at 12, ssDNA, tRNA, parent 13 nM): 8.5 nM

AGCCUGGGGACCCAUGGGGGGCU [ARC925]
Kd ([2]; dRmY, 2'-deoxy-5mC at 3, dC at 12 and 22, ssDNA, tRNA, parent 13 nM): 8.1 nM

AGCCUGGGGACCCAUGGGGGGCU [ARC926]
Kd ([2]; dRmY, 2'-deoxy-5mC at 11, dC at 12 and 22, ssDNA, tRNA, parent 13 nM): 5.5 nM

AGCCUGGGGACCCAUGGGGGGCU [ARC1335]
Kd ([2]; ARC445 with 2'-OMe purines at 1, 2, 7, 10, 14, 17, other purines 2'-deoxy, 2'-OMe pyrimidines, 3'-idT (last t of SEQ), RT, other runs 15 nM (Table 9), 2.8 nM (Table 11)): 0.3 nM

AGCCUGGGGACCCAUGGGGGGCU [ARC1548]
Kd ([2]; as ARC1335 with dI at 2, 3'-idT [dI at 2 (parent base G), other modifications as ARC1335, 3'-idT], RT): 3.3 nM

AGCCUGGGGACCCAUGGGGGGCU [ARC1562]
Kd ([2]; as ARC1335 with dI at 16, 3'-idT [16], RT): 0.6 nM

AGCCUGGGGACCCAUGGGGGGCU [ARC1563]
Kd ([2]; as ARC1335 with dI at 17, 3'-idT [17], RT): 2.2 nM

AGCCUGGGGACCCAUGGGGGGCU [ARC1564]
Kd ([2]; as ARC1335 with dI at 18, 3'-idT [18], RT): 0.5 nM

AGCCUGGGGACCCAUGGGGGGCU [ARC1565]
Kd ([2]; as ARC1335 with dI at 19, 3'-idT [19], RT): 1.4 nM

AGCCUGGGGACCCAUGGGGGGCU [ARC1566]
Kd ([2]; as ARC1335 with dI at 20, 3'-idT [20], RT, other run 8 nM (Table 9, parent ARC1335 15 nM)): 0.1 nM

AGCCUGGGGACCCNUGGGGGGCU [ARC1560]
Kd ([2]; as ARC1335 with dI at 14, 3'-idT, RT, parent ARC1335 15 nM): 3 nM

AGCCUGGGGACCCNUGGGGNGCU [ARC1647]
Kd ([2]; as ARC1335 with dI at 14 and 20, 3'-idT, RT, parent ARC1335 15 nM): 1 nM

AGCCUGGGGACCCRUGGGGGGCU [ARC2047]
Kd ([2]; as ARC1335 with 2'-OMe-2-aminopurine at 14, 3'-idT, RT, parent 2.8 nM): 4.8 nM

AGCCUGGRGACCCAUGGGGGGCU [ARC2044]
Kd ([2]; as ARC1335 with 2'-deoxy-2-aminopurine at 8, 3'-idT, RT, parent 2.8 nM): 3.9 nM

AGCCUGGRGACCCRUGGGGGGCU [ARC2360]
Kd ([2]; as ARC1335 with 2'-deoxy-2-aminopurine at 8 and 2'-OMe-2-aminopurine at 14, 3'-idT, RT, parent 2.8 nM): 2.7 nM

RGCCUGGGGACCCAUGGGGGGCU [ARC2040]
Kd ([2]; as ARC1335 with 2'-OMe-2-aminopurine at 1, 3'-idT, RT, parent 2.8 nM): 18.7 nM

RGCCUGGRGACCCRUGGGGGGCU [ARC2361]
Kd ([2]; as ARC1335 with 2'-OMe-2-aminopurine at 1 and 14 and 2'-deoxy-2-aminopurine at 8, 3'-idT, RT, parent 2.8 nM): 0.8 nM
